Reference: the nanobody polyreactivity screen of Harvey et al. (2022)

Experiment: yeast display, Sf9 membrane polyspecificity reagent, FACS + sequencing; frameworks hold sequencing errors
How it was run: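 Genes from sorted yeast were amplified by colony PCR, read by MiSeq 2 × 250 sequencing and filtered on CDR length. These cells carried a synthetic nanobody library in Saccharomyces cerevisiae BJ5465 and were sorted by FACS into low and high (top ~1%) gates on anti-HA and streptavidin fluorescence. Polyreactivity is labelled according to the gate of origin.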

Sequence | polyreactivity (PSR sort gate)
QVQLVESGGGLVQAGGSLRLSCAASGFTFGYYAMGWYRQAPGKERELVAAISSSGGSTYYADSVKGRFTLSRDNAKNTVYLQMNSLKPEDTAVYYCAVVVFSRVYRYFTSDYWGQGTQVTVSS | high polyreactivity
QVQLVESGGGLVQAGGSLSLSCAASGRIIDWNTMGLYRQAPGKERDLDATISWDGGTKYYADSVKGRFTISRDTAKNTVFLQMNSLKPEDTAVYYCNKSPLNFFRFRATYDYWGQGTQVTVSS | low polyreactivity
QVQLVESGGGLVQAGGSLRLSCAASGSTFFRYAMGWYRHAPVKERELVAAISASGGRTYYADSVKGRFTISRDNAKNTVYLLMNSLKPEDTAVYYCNRQYGPYQYYYWGQGTQVTVSS | high polyreactivity
QVQLVVSRGGLVQAGGSLRLSCAASGSTFYYNAMGWYRQAPGKERELVAAISRSGGRTYYADSVKGRFTISRDNAKNTVYLQMNSLKPEDTAVYYCAAEYFDWWVTYDYWGQGTQVTVSS | high polyreactivity
QVQLVESGGGLVQAGGSLRLSCAASGSIFGGNAMGWYRQAPGKERELVAVISWSGGSTYYADSVKGRFTISRDNAKNTVYVQMNSLKPEDTAVYYCATSSVAEAKYVTEGTFDYWGQGTQVTVSS | low polyreactivity
QVQLVESGGGLVQAGGSLRLSCAASGSIFKGYAMGWYRQAPGKERELVAANTYSGGGTYYADSVKGRFTISRDNAKNTVYLQMKSLKQEDTAVYYCNADRYYPDDLSDGVGTYDYWGQGTQVSVSS | low polyreactivity
QVQLVDSGGGLVQAGGSLRLSCAASGSTFKINAMGWYRQAPGKERELVAAISSRGGPTYYADSVKGRFTISRDNAKNTVYLQMNRLKPEDTAVYYSAKRRGGSRPYYYWGQGTQVTVSS | high polyreactivity
QVQLVESGGGLVQAGGSLRLSCAASGSIFGYYTMGWYRQAPGKERELVAAITSGGSTNYADSVKGRFTISRDNAKNTVYLQMNSLKPEDTAVYYCAKVSYYPWRYDYWGQGTQVTVSS | low polyreactivity
QVQLVESGAGLVQAGGSLRLSCAASGFNFRENAMGWYRQAPGKERELVAAISRSGGSTYYADSVKGRFTISRDNAKNTVYLQMNSLKPEDTAVYYCAAPKDYDYWGQGTKVTVSS | low polyreactivity
QVQLVESGGGLVQAGGSLRLSCAASGYTFSFNAMGWYRQAPGKEREFVAAIDFGGAGTYYADSVKGRFTISRDTAKKTVYLQMNSLKPEDTAVYYCNARDGVTTEFDYWGQGTQVTVAS | low polyreactivity
QVQLVESGGGLVQAGGSLRLSCAASGFIFKTYAMGWYRQAPGKERELVARISKSSGNTYYADSVKGRFTISRDNAKNTVYLQMNSLKPEDTAVYYCNRRHTSKNAYTSPSEYDYWGQGTQVTVSS | low polyreactivity
QVQLVESGGGLVQAGGSLRLSCAASGSTFSVYAMGWYRQAPGKERELVAAITWSGGSTYYADSVKGRFTISRDNAKNTVYLQMNSLKPEDTAVYYCAARYGRIHWKANWPEYGYWGQGTQVTVSS | low polyreactivity
QVQLVESGGGLVQAGGSLRLSCAASGTYRLYAMGWYRQAPGKEREFVAAITYGGGGTYYADSVKGRFTISRDNAKNTVYLQMNSLKPEDTAVYYCAADLYLTDTDVEYYYWGQGTKVTVSS | low polyreactivity
QVQLVESGGGLVQAGGSLRLSCAASGFTFNKYAMGWYRQAPRKERELVAAISSSGGSTRYADSVKGRFTISRDNAKNTVYLQMISLKPEDTAVYYCAVYVTRDSGWWLYDYWGQGTQVTVSS | high polyreactivity
QVQLVESGGGLVQAGGSLRISCAASGIIFAYAMGWYRQAPGKERELVAAISGRDGSTYYADSVKGRFTISRDNAKNTVYLQMISLKQEDTAVYFCAAGDYYLQDNYWGQGTQVTVSS | low polyreactivity
QVQLVESGGGLVQAGGSLRLSCAASGSTFWYYGMGWYRQAPGKERELVAAITRGGSTYYADSVKGRFTISRDNAKNTVYLQMNSLKPEDTAVYYCARAPSYSTGVSIRDYWGQGTQVTVSS | high polyreactivity
QVQLVESGGGLVQAGGSLRLSCAASGIIFAYYAMGWYRQAPGKERELVGTNYADSVKGRFTISRDNAKNTVYLQMNSLKPEDTAVYYCAADFLYYSSGGKMDYWGQGTQVTVSS | low polyreactivity
QVQLVESGGGLVQAGGSLRLSCAASGFTFYWNTMGWYRPAPGKERELVAAISWSGGDTDYADSVKGRFTISRDNAKNTVYLQMNSLKPEDTAVYYCNSIYVSDRSSAVSFDYWGQGTQVNVSS | low polyreactivity
QVQLVESGGGLVQAGGSLRLSCAASGNIFHDNAMGWYRQAPGKERELVAAISDSGGSTYYADSVKGRFTISRDTAKNTVYLQMNSLKPEDTAVYYCDSGRTYYAPYQWWYDYWGQGTQVTVSS | high polyreactivity
QVQLVESGGGLVQAGGSLRLSCAATGRTFTVNPMGWYIQAPGKERELVAAITGSGGSTYYADSVKGRFTISRDNGKNTVYLQMNSLKPEDTAGYYCAADVNWFRWWSGSVELDYWGQGTQVTVTS | low polyreactivity
QVQLVESGGGLVQAGGSLRLSCAASGSIFKSNAMGWYRQAPGKERELVAAISNGGITNYADSVKGRFTISRDNAKNSVYLQMNSLKPEDTAVYYCATSDVREIWVDYWGQGTQVTVSS | low polyreactivity
QVQLVESGGGLVQAGGSLRLSCAASGRIFTRNAMGWYRQAPGKERELVATISAGGGRTSYADSVKGRFTISRDNAKNTVYLQMNSLKPEDTAVYYCAARGQVGYYWGQGTQVTVSS | high polyreactivity

Sequence | polyreactivity (PSR sort gate)
QVQLVESGGGLVQAGGSLRLSCDASGSIFSYYAMGWYRQAPGKERELVAAITYRGGSTFYADSVKGRFTLSRDNAKNTVYFQMNRLKPEDTAVYYCATRYYVDQRYQYKYDYWGQGTQVTVSS | high polyreactivity
QVQLVESGGGLVQAGGSLRLSCAASGRIFGYYAMGWYRQAPGKEMELVARITWSGGDTYYADSVKGRFTISRDNAKNTVYLQMNSLKPEDTAVYYCAADYLDSTYGYVYGWDDYWGQGTQVTVSS | low polyreactivity
QVELVESGGGLVQAGGSRRLSCAASGSTFYAYAMGWYRQAPGKERELVAAISASGDSTYYADFVKGRFTISRDNAKNTVYLQMNSLTPEDTAVYYCAAEVYYRPQDYYTYPDYYWGQGTQVTVSS | high polyreactivity
QVQLVESGGGLVQAGGSLRLSCAASGSTFGFNAMGWYRQAPGKERELVAAITFSGGTTYYADSVKGRFTISRDNAKNTVYLQMNSLKPEDTAVYYCNADVKRDRVWGGDYWGQGTQVTVSS | low polyreactivity
QVQLVESGGGLVQAGGSLRLSCAASGSTFSPYTMGWYRQAPGKERELVAAITWSGVTTYYADSVKGRFTISRDNAKNTVYLQMNSLKPEDSAVYYCAAGRTRRKFDYWGQGTQVTVSS | low polyreactivity
QVQLVESGGGLVQAGGSLRLSCAASGSIFGTNAMGWYRQAPGKERELVAAINWSGGTTYYADSVKGRFTISRDNAKNTVYLQMNSLKPEDTAVYYCATVFFVLPPTRFDSWGQGTQVTVSS | low polyreactivity
QVQLVESGGGLVQAGGSLRLSCAASGYIFQDYAMGWYRPAPGKERELVAAITSGGSTYYADSVKGRFTISRDNAKNTVYLQMNSLKPEDTAVYYCAAVGYYSVPGYSSRRYYYWGQGTQVTVSS | high polyreactivity
QVQILETGGGLVQAGGSLSLSCAASGSIFYSNAMGWYRQAPGKESEIVAAISAGGGSTYYADSVKGRFTISRDNAINTVYLQMNSLKPEDTAVYYCAAQPYKIIYPYDYWGQGTQVTVSS | low polyreactivity
QVQLVETGGGLVQAGGSLRLSCAASGITFYEYALGWYRQAAGKERELVAAISTSGGNTYYAESVKGRFTISRDNAKTTVYLQMNSLKPEDTAVFYCAAQGTASSYSGGDYWGQGTQVTVSS | low polyreactivity
QVQLVESGGGLVQAGGSLSLSCAASGLIFDVYAMGWYRKAPGKERELVAVISRGVSTNYPDSVKGRFTISRDNAKNTVYLQMNSLKPEDTAVYYCATDSRGYDYWGQCTQVTVSS | high polyreactivity
QVQLVESGGGLVQAGGSLRLSCAASGRIFGVNTMGWYRQEPGKEREMVAVIRESDGSTYYADSVKGRFTISRDNAKNTVYLQMNSLKPEDTAVYYCAKDWYRSPSTYEWNSQYGYWGQGTQVTVSS | low polyreactivity
QVQLVESGGGLVQAGGSLRLSCSASGSTFYPYAMGWYRQAPGKERELVAAISSGGSTSYADSVKGRFTISRDNAKNTVYLQMNSLKPEDTAVYYCNASSPGAVPVYDYDYWGQGTQVTVSS | low polyreactivity
QVQLVESGGCLVQAGGRLRLSSAASGGTFTFYAMGWYRQAPGKERELVATINWSGGSTYYADSVKGRFTISRDNAKNTVYLQMNSLKPEDTAVYYCNAAWPYKSVEYWGQGTQVTVSS | low polyreactivity
QLQLVESGGGLVQAGGSLRLSCAASGYTFRFNAMGWYRQAPGKEREFVAAIDFGGAGTYYADSVKGRFTISRDNAKNTVYLQMNSLKPEDTAVYYCAADGQWYYAPFRGGDYENDYWGQGTQVTVSS | low polyreactivity
QVQLVESGGGLVQAGGSLRLSCAASGSIFYHYVMGWYRQAPGKDRELVAGISWSGVSTYYADSVKGLFTISRDNAKNTVYLQMNSLKPEDTAVYYCAAVYRQSRLHTFGYWGQGTQVTVSS | high polyreactivity
QVQLVESGGGLVQAGGSLRLSCAASGSTFFDYAMGWYRQAPGKEREFVAAISRSGDTNYADSVKGRFTISRDNAKNTVYLQMNSLKPEDTAVYYCAKDWAYRRHWVGFYYWGQGTQVTVSS | low polyreactivity
QVQLVESGGGLVQAGGSLRLSCAASGRIFGYNAMGWYRQAPGKERELVAVITYSGGSTYYADSVKGRFTISRDNAKNTVYLQMNSLKPEDTAVYYCNARPIDRYSGSGKQWPDYYYWGQGTQVTVSS | low polyreactivity
QVQLVESGGGLVQAGGSLRLSCAASGSIFVIYSMGWYRQAPGKERELVARITKSGGSTYYADSVKGRFTISRDNAKITVYLQMNSLKPEDTAVYYCNVGYGGSSDGGYDYWGQGTQVTVSS | high polyreactivity
QVQLVESGGGLGQAGGSLRLSCAASGSIFERNAMGWYRQAPGKERELVAAISSSGVSTYYADSVKGRFTISRDNAKNTVYLQMNSLKPEDTAVYYCNAVWRLRVRYGYWGQGTQVTVSS | high polyreactivity
QVQLVESGGRLVQAGGSLRLSCAASGSIFAWSMGWYRPAPGKERELVAAISSGGSTYYADSVKGRFTISRDNAKNTVYFQMNSLKPEDTAVYYCAAGLISRFSRYYFWGQGTQVTVSS | high polyreactivity
QVQLVESGGGLVQAGGSLRLSCAASGRTFRYYAMGWYRQAPGKERELVAAISWSGVRTYYADSVKGRFTISRDNSKNTVYLQMNSLKPEDTAVYYCAKGGYWGQGTQVTVSS | high polyreactivity
